# Results from patent US20220356230A1.
# Experiments:
# Assay in all cases: Luminex bead assay, antibody supernatant on modified RBD.mmH microspheres
# [1] = target: MOD15 - SARS-CoV-2 Spike Protein (RBD)(R319-F541).mmH (SARS-CoV-2)
# [2] = target: MOD8 - SARS-CoV-2 Spike Protein (RBD)(R319-F541).mmH (SARS-CoV-2)
# [3] = target: MOD10 - SARS-CoV-2 Spike Protein (RBD)(R319-F541).mmH (SARS-CoV-2)
# [4] = target: MOD13 - SARS-CoV-2 Spike Protein (RBD)(R319-F541).mmH (SARS-CoV-2)
# [5] = target: MOD9 - SARS-CoV-2 Spike Protein (RBD)(R319-F541).mmH (SARS-CoV-2)
# [6] = target: MOD14 - SARS-CoV-2 Spike Protein (RBD)(R319-F541).mmH (SARS-CoV-2)
# [7] = target: MOD11 - SARS-CoV-2 Spike Protein (RBD)(R319-F541).mmH (SARS-CoV-2)
# [8] = target: MOD12 - SARS-CoV-2 Spike Protein (RBD)(R319-F541).mmH (SARS-CoV-2)
substance,measurement,setting,value
mAb10936 (antibody),Binding signal (MFI),[1],21700 MFI
same,Binding signal (MFI),[2],2920 MFI
same,Binding signal (MFI),[3],28800 MFI
same,Binding signal (MFI),[4],29200 MFI
same,Binding signal (MFI),[5],29100 MFI
same,Binding signal (MFI),[6],28500 MFI
same,Binding signal (MFI),[7],30800 MFI
same,Binding signal (MFI),[8],31700 MFI
